The record followed here is patent publication US20020160957A1.

No end group written: not given here. *: point of attachment. 125I = [125I]*

This test concerns the target cell surface binding site for EMAP II N-terminal peptides on human mononuclear phagocytes (MPs); ≈73 kDa MP surface polypeptide. Kind of test: radioligand binding on human MPs, 4 C, one-site model.

For RIGRIVTAKY(125I) [^125I-…], the Kd was 0.19 nM and the N (molecules of peptide bound per cell) (molecules of peptide bound per cell) amounted to 8300.
